According to doi:10.1101/2022.01.16.476467 (bioRxiv, 2022):
Values belong to the binder of their own block, whether it stands above or below them.

Assays:
[1] = biological target: T1, CASK full-length protein (recombinant) (Mus musculus, UniProt O70589-3 1-897); experiment: ITC
T1 sequence (looked up): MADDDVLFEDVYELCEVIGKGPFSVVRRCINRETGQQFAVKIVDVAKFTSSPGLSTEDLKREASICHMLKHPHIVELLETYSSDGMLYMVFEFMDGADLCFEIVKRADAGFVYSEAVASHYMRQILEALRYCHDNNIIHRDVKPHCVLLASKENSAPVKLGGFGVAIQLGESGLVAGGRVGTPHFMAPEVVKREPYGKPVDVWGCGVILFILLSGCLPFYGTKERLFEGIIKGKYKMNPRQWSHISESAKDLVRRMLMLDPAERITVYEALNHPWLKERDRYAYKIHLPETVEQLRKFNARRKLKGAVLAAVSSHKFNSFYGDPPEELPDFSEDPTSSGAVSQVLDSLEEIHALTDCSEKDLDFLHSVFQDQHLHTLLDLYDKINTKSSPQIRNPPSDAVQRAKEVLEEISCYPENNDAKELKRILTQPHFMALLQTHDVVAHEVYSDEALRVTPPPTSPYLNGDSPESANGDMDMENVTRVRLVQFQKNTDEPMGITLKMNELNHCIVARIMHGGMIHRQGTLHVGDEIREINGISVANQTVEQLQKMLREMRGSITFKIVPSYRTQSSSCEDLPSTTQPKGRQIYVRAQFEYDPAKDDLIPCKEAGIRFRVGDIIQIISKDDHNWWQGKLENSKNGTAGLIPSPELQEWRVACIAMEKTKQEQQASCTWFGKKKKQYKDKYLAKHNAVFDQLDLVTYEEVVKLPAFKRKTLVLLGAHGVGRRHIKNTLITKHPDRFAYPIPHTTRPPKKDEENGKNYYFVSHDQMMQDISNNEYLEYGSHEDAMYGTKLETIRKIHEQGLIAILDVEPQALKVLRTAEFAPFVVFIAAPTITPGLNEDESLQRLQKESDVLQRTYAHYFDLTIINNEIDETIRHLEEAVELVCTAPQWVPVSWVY

[2] = biological target: T2, CASK_CAMK domain (residues 1-345) (Mus musculus, UniProt O70589-3 1-345); experiment: SEC-MALS
T2 sequence (looked up): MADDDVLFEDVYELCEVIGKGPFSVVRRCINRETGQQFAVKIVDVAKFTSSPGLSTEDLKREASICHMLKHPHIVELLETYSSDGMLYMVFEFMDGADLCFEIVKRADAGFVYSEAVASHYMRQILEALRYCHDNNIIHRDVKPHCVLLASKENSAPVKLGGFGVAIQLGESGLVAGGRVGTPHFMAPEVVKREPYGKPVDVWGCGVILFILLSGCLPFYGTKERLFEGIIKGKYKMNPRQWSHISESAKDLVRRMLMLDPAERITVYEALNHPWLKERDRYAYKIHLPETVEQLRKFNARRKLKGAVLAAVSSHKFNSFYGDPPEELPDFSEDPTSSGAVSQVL

[3] = biological target: T2, CASK_CAMK domain (residues 1-345); experiment: ITC

Kd [1]: ~760 nM
B1: Caskin1_N-terminal (residues 1-674) (domain or fragment)
chain: not shown

stoichiometry N [2]: ~1
Kd [3]: 940 ± 90 nM
B2: Caskin1 extended CID protein (residues 371-466) (domain or fragment, Mus musculus, UniProt Q6P9K8-1 371-466, looked up)
chain: PPEEIWVLRKPFAGGDRSGSLSNVAGGRSTGGHALHAGSEGVKLLATVLSQKSVSESSPGDSPVKPPEGSSGAARSQPPAAHAGQVYGEQPPKKLE
